Test results: US6525022B1, “Receptor specific atrial natriuretic peptides” (Genentech, Inc., priority 1993, dated 2003)
Bridges are numbered along the chain shown (N, C = ends). Where no end group is shown, it is not given here.

How the values were obtained:
[1] = biological target: human NEP (hNEP), endopeptidase 24.11 (Homo sapiens, UniProt P08473); experiment: in vitro; settings: Half-Life (min.)
Description: The half-life of various ANF variants was measured according to the following procedure.
ANF Solution: An accurately weighed amount of ANF or variant thereof was diluted with HEPES buffer (5 ml of 1 M HEPES Buffer and 0.1 ml of Tween 20 diluted to a 100 ml volume with DI water) to make a 0.5 mg/ml solution.
hNEP/HEPES Solution: 7.5 μl of a 1 mg/ml solution of hNEP (see U.S. Pat. No. 4,960,700) is dissolved in 992.5 μl of HEPES buffer (as described above) and vortex mixed. The resulting mixture is stored in a silylated Eppendorf tube and periodically checked for activity against an ANF peptide standard.
Assay conditions: 150 μl of an ANF solution in the HEPES buffer is diluted with 820 μl HEPES buffer and vortex mixed (1 sec). Careful note of the time is taken as 30 μl of the hNEP/HEPES solution is added and the solution is vortex mixed for 1 sec. and analyzed by periodic removal of constant volume aliquots by the HPLC autosampler. A 2.5 cm×50 cm, C-18 reversed-phase column (15 micron, 300 Å]) was used and elution was achieved by using a shallow gradient of increasing acetonitrile. The elution conditions consisted of a 10% to 50% acetonitrile (containing 0.1% TFA) gradient at 0.5% min.^−1. The aqueous phase was 0.1% TFA in water. The peak area of the ANP peptide is recorded at these periodic intervals and a half-life is determined from these values.

[2] = biological target: T1, human natriuretic peptide receptor-A expressed in 293 cells (Homo sapiens, UniProt P16066); experiment: cGMP production in 293 cells expressing hNPR-A; type: cell-based
T1 construct: expressed in transfected cells
T1 sequence (P16066 33-1061): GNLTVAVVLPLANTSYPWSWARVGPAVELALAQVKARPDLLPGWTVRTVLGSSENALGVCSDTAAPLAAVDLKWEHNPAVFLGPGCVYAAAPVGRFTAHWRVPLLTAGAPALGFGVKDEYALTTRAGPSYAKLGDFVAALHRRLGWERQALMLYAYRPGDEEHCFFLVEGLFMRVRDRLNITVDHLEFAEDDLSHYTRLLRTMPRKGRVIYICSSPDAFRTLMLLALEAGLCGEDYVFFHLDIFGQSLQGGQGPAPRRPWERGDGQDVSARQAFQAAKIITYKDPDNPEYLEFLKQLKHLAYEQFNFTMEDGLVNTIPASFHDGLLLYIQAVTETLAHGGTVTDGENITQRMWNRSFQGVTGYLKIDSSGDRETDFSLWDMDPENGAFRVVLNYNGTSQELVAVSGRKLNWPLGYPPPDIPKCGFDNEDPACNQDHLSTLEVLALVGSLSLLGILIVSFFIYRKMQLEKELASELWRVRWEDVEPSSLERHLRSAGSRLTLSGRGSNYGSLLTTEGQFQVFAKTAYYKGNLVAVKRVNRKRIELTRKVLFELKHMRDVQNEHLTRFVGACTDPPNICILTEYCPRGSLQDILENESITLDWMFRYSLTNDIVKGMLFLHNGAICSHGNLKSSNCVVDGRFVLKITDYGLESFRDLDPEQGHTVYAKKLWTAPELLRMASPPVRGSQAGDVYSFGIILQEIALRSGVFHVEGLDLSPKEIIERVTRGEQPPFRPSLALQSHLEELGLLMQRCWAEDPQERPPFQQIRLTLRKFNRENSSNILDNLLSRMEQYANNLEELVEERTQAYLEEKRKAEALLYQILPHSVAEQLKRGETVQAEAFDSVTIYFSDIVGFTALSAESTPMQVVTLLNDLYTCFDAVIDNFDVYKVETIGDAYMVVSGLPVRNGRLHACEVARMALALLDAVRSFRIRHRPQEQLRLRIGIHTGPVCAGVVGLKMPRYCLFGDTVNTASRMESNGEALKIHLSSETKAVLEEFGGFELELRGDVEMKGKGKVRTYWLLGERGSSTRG
Description: Stable 293 cell lines were maintained in glycine free F-12/Dulbecco's minimal essential medium (50/50, v/v) with 10% dialyzed fetal calf serum, 10 mM Hepes, […] of G418 (Geneticin, GIBCO/BRL), pH 7.2, in a humidified incubator at 37° C. with 7% CO2, 93% air. Cells were passaged using 136.8 mM NaCL, 2.6 mM KCl, 7.9 mM Na2HPO4, 1.4 mM KH2PO4, pH 7.2 (PBS) with 0.5 mM EDTA. For concentration-response experiments log phase cultures of 293 cell lines were passaged to 12 well plates at a density of 2.5×10^5 cells/well. After 48 hours cultures were approximately 50% confluent, and were used for stimulation of cGMP production. Peptide treatments were carried out essentially as described by Lowe and Fendly (1992). Briefly, dried peptide aliquots were resuspended in 0.1% (v/v) acetic acid to a stock concentration of 50 μM, and diluted to 1 μM in F-12/Dulbecco's minimal essential medium (50/50, v/v) with 25 mM Hepes, 0.1% (w/v) bovine serum albumin, 0.1 mM isobutylmethylxanthine at pH 7.2 (stimulation medium). Five-fold serial dilutions were prepared in stimulation medium using polypropylene tubes, then prewarmed to 37° C. before use. Cell culture medium was aspirated prior to adding 0.5 ml of stimulation medium plus peptides to monolayer cultures for 10 minutes at 37° C. Reactions were stopped by addition of 0.5 ml of ice cold 12% trichloroacetic acid to give a final volume of 1 ml. Culture plates were frozen on dry ice and stored at −20° C. prior to assay. For cGMP measurements samples were thawed at room temperature, and processed as described by Koller et al., Science 252:120-123 (1991), for cGMP radioimmunoassay (Biomedical Technologies, Inc). All stimulations were performed in triplicate, and samples were measured in duplicate for cGMP by radioimmumoassay. Predicted peptide concentrations were corrected based on quantitative amino acid analysis of duplicate samples from the same set of peptide aliquots used for the stimulation experiments.
Data analysis. The competition binding curves and cGMP production dose responses were analyzed by the four-parameter logistic equation with the KaleidaGraph™ program (Synergy Software, PA) to obtain estimates of the IC50 or EC50 values. The non linear least-squares curve fitting program SCATPLOT was used to analyze the competition binding curves according to a one-site or two-site binding model for competitor. A two-site binding model is reported when the fit to the data was statistically better (p<0.05) than a one-site fit.

[3] = biological target: T2, hNPR-C (Homo sapiens, UniProt P17342); experiment: Competitive binding to membranes from cells expressing human NPR-C; design: expressed in transfected cells; settings: FIG. 19, in comparison to rat ANP
T2 sequence (P17342 27-541): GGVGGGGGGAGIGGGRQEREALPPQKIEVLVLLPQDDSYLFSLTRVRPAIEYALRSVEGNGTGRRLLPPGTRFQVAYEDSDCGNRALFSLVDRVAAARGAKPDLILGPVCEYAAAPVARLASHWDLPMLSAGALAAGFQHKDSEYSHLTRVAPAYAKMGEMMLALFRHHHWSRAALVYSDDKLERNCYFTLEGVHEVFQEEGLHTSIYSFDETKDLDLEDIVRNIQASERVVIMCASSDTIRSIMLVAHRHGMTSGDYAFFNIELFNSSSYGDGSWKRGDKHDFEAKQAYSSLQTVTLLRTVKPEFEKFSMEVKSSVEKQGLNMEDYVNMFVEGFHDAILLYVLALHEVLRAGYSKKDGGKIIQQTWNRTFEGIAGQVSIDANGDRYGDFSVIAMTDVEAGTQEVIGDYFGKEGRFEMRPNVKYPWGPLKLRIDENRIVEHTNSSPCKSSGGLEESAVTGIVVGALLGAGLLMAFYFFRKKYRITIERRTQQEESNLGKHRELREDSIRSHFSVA
Description: Membrane preparation. Stable cell lines expressing human NPR-A (Lowe and Fendly, J. Biol. Chem. 267:21691-21697 (1992)) or human NPR-C (Cunningham et al., EMBO J 13, 2508-2515 (1994)) were removed from cell culture dishes with 0.5 mM EDTA in phosphate buffered saline (PBS), placed in ice cold PBS and centrifuged at 228 g for 10 min at 4° C. The cell pellets were resuspended in ice-cold homogenization buffer (50 mM HEPES, 1 mM EDTA, 1 mM DTT, 0.25 M sucrose, 0.7 mg/mL pepstatin A, 0.5 mg/mL leupeptin and 1 mM PMSF, pH 7.4). The cells were then homogenized using a Brinkman polytron at setting 5 for 30 sec. The homogenate was centrifuged at 400×g for 10 min at 4° C. The supernatant was collected and centrifuged at 100,000×g for 30 min at 4° C. […] Protein concentrations was determined using the Biorad protein assay with IgG as a standard.
Membrane competition binding assays. […] The plates were washed six times with PBS, then air dried prior to adding scintillant and counted in a Packard Topcount scintillation counter for 1 min/well. Binding was measured in duplicate for each concentration of competitor.
Data analysis. The competition binding curves and cGMP production dose responses were analyzed by the four-parameter logistic equation with the KaleidaGraph™ program (Synergy Software, PA) to obtain estimates of the IC50 or EC50 values. […]

[4] = biological target: human neutral endopeptidase 24.11 (human) (UniProt P08473); experiment: cell-based or functional assay
[5] = biological target: T3, human natriuretic peptide clearance receptor-C (human) (UniProt P17342); experiment: competition binding, Table I; tracer and receptor format not given
T3 sequence (looked up): T2 sequence (P17342 27-541)

[6] = biological target: human natriuretic peptide receptor-A (human) (UniProt P16066); experiment: as above
[7] = biological target: T4, human natriuretic peptide clearance receptor-C (human, UniProt P17342 27-541); experiment: analysis of variants in receptor binding
T4 construct: whole, on cells; also called hNPR-C; human NPR-C
T4 sequence (looked up): T2 sequence (P17342 27-541)

[8] = biological target: human neutral endopeptidase 24.11 (human, UniProt P08473 2-750, limits assumed); experiment: cell-based or functional assay
[9] = biological target: T5, human natriuretic peptide receptor-A (human, UniProt P16066 33-1061); experiment: competition binding, Table I; tracer and receptor format not given
T5 construct: whole, on cells; also called hNPR-A; human NPR-A
T5 sequence (looked up): T1 sequence (P16066 33-1061)

[10] = biological target: T4, human natriuretic peptide clearance …; experiment: as above

human NEP (hNEP), endopeptidase 24.11, sequence (P08473 whole entry): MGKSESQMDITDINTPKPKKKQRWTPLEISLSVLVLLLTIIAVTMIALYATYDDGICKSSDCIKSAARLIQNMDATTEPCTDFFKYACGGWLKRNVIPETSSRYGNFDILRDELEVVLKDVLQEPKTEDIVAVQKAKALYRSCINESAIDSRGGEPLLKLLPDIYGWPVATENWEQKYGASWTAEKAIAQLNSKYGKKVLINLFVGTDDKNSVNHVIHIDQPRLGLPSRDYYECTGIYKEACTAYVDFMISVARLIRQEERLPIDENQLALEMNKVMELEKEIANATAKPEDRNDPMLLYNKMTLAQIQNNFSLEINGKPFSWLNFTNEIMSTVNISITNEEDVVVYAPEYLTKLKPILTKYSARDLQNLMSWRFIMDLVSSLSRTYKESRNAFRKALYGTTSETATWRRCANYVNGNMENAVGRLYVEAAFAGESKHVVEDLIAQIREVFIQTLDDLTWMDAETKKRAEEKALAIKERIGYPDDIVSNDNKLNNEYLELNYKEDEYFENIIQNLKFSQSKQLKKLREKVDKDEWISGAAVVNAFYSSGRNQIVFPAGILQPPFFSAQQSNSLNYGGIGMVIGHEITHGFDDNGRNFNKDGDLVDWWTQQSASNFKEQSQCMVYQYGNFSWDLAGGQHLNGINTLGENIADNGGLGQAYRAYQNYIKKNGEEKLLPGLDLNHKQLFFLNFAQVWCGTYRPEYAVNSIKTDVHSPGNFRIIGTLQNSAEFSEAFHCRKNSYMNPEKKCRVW
human neutral endopeptidase 24.11, sequence (P08473 2-750 limits assumed): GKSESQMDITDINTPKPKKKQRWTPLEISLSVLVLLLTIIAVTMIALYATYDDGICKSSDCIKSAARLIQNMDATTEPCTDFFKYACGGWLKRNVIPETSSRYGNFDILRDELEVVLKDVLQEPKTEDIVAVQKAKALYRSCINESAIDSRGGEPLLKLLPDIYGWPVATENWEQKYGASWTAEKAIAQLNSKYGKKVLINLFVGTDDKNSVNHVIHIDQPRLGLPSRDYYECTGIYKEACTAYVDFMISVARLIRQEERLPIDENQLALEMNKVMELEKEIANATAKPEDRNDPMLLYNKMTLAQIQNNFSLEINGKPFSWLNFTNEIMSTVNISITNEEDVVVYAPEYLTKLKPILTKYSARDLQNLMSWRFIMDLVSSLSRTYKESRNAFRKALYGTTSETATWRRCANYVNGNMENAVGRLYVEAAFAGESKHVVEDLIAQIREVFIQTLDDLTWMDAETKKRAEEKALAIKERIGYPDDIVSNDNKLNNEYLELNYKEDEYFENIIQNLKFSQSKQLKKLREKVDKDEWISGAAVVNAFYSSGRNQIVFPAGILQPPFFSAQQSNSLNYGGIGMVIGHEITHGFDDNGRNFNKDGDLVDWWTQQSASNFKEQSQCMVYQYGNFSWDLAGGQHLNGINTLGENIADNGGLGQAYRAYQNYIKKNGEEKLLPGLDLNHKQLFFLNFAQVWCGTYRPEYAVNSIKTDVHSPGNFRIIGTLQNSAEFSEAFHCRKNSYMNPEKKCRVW
human neutral endopeptidase 24.11 (human), sequence (P08473 2-750 limits assumed): as above

## CC[C@H](C)[C@@H]1NC(=O)[C@H](CCCNC(=N)N)NC(=O)[C@H](CC(=O)O)NC(=O)[C@H]([C@@H](C)CC)NC(=O)[C@H](CO)NC(=O)CNC(=O)[C@H]([C@@H](C)O)NC(=O)[C@H](Cc2ccccc2)N(C)C(=O)[C@@H](NC(=O)[C@H](CO)NC(=O)[C@H](CO)NC(=O)[C@H](CCCNC(=N)N)NC(=O)[C@H](CCCNC(=N)N)NC(=O)[C@H](CC(C)C)NC(=O)[C@@H](N)CO)CSSC[C@@H](C(=O)N[C@@H](CC(N)=O)C(=O)N[C@@H](CO)C(=O)N[C@@H](Cc2ccccc2)C(=O)N[C@@H](CCCNC(=N)N)C(=O)N[C@@H](Cc2ccc(O)cc2)C(=O)O)NC(=O)CNC(=O)[C@H](CC(C)C)NC(=O)CNC(=O)[C@H](CO)NC(=O)[C@H](CCC(N)=O)NC(=O)[C@H](C)NC(=O)[C@H](CCCNC(=N)N)NC1=O [ANF 83]
[1]
  half-life at 32 nM/ml: 932 min

## Ser-Leu-Arg-Arg-Ser-Ser-Cys-Phe-Gly-Gly-Arg-Ile-Asp-Arg-Ile-Arg-Glu-Ala-Ser-Gly-Leu-Gly-Cys-Asn-Ser-Phe-Arg-Tyr (SEQ ID NO: 24), Cys^7-Cys^23 disulfide (SLRRSSCFGGRIDRIREASGLGCNSFRY; disulfide 7-23) [ANF 99]
[2]
  Potency in cGMP production compared with rat ANP: equipotent
  Stimulation of cGMP production (agonist efficacy): efficacious
[3]
  Binding to human NPR-C membranes, competition for 125I-rat ANP: reduced affinity

## CC[C@H](C)[C@@H]1NC(=O)[C@H](CCCNC(=N)N)NC(=O)[C@H](CC(=O)O)NC(=O)[C@H]([C@@H](C)CC)NC(=O)[C@H](CO)NC(=O)CNC(=O)[C@H]([C@@H](C)O)NC(=O)[C@H](Cc2ccccc2)NC(=O)[C@@H](N(C)C(=O)[C@H](CO)NC(=O)[C@H](CO)NC(=O)[C@H](CCCNC(=N)N)NC(=O)[C@H](CCCNC(=N)N)NC(=O)[C@H](CC(C)C)NC(=O)[C@@H](N)CO)CSSC[C@@H](C(=O)N[C@@H](CC(N)=O)C(=O)N[C@@H](CO)C(=O)N[C@@H](Cc2ccccc2)C(=O)N[C@@H](CCCNC(=N)N)C(=O)N[C@@H](Cc2ccc(O)cc2)C(=O)O)NC(=O)CNC(=O)[C@H](CC(C)C)NC(=O)CNC(=O)[C@H](CO)NC(=O)[C@H](CCC(N)=O)NC(=O)[C@H](C)NC(=O)[C@H](CCCNC(=N)N)NC1=O [ANF 82]
[1]
  half-life at 32 nM/ml: 365 min

## ANF 31 (peptide)
[4]
  Half-Life: 178 min
[5]
  IC50: 3.21 µM
[6]
  IC50: 0.052 nM

B1: hANF(1-28) G16R (peptide)
peptide: SLRRSSCFGGRMDRIRAQSGLGCNSFRY
modifications: disulfide 7-23 (inferred)
notes: also called hANF G16R
[7]
  fold reduction of affinity against wild type: ~150 fold

B2: ANF 51 (peptide)
peptide: SLRRSSCFERPMDRIGAQSGLGCNSFRY
modifications: disulfide 7-23
notes: Cys7-Cys23 disulfide; also called hANF(1-28) G9E, G10R, R11P
[8]
  Half-life at 0.075 µg/ml NEP: 1930 min
  Half-life at 0.15 µg/ml NEP: 269 min
[9]
  IC50: 4.55 nM
[10]
  IC50: 32.2 nM
